Assay results as given in patent US20230159610A1 (BIOTEST, published 2023).
Substitutions are numbered along the chain they refer to.

B1: FcTregV23 (other)
chain: DKTHTCPPCPAPELLGGPSVFLFPPKPKDTLMISRTPEVTCVVVDVSHEDPEVKFNWYVDGVEVHNAKTKPREEQYNSTYRVGTDFTLTISSLQPEDEYKCKVSNKALPAPIEKTISKAKGQPREPQVYTLPPSRDELTKNQVSLTCLVKGFYPSDIAVEWESNGQPENNYKTTPPVLDSDGSFFLYSKLTVDKSRWQQGNVFSCSVMHEALHNHYTQKSLSLSPGK
notes: Human IgG1 Fc-part with Treg084 in frame A; also called Construct V23
B2: FcTregV13 (other)
chain: DKTHTCPPCPAPELLGGPSVFLFPPKPKDTLMISRTPEVTCVVVDVSHEDPEVKFNWYVDGVEVHNAKTKPREEQYQSTYRVVSVLTVLHQDWLNGKEYKCKVSNKALPAPIEKTISKAKGTDFTLTISSLQPEDDELTKNQVSLTCLVKGFYPSDIAVEWESNGQPENNYKTTPPVLDSDGSFFLYSKLTVDKSRWQQGNVFSCSVMHEALHNHYTQKSLSLSPGKKTLYLQMNSLRAEDTAKH
notes: TCP on the human IgG1 Fc-part: Treg289 in frame A, Treg084 in frame C, Treg088x C-terminal; also called Construct V13
B3: FcTregV34 (other)
chain: DKTHTCPPCPAPELLGGPSVFLFPPKPKDTLMISRTPEVTCVVVDVSHEDPEVKFNWYVDGVEVHNAKTKPREEQYNSTYRVVSVLTVLHQDWLNGKEYKCKVSNKALPAPIEKTISKAKGQPREPQVYTLPPSRDELTKNQVSLTCLVKGFYPSDIAVEWESNGQPENNYKTTPPEEQYQSTYRVVSVLTVLHQDWQQGNVFSCSVMHEALHNHYTQKSLSLSPGKKTLYLQMNSLRAEDTAKH
notes: TCP on the human IgG1 Fc-part: Treg289 in frame B, Treg088x C-terminal; also called Construct V34
B4: FcTregV20 (other)
chain: DKTHTCPPCPAPELLGGPSVFLFPPKPKDTLMISRTPEVTCVVVDVSHEDPEVKFNWYVDGVEVHNAKTKPREEQYNSTYRVVSVLTVLHQDWLNGKEYKCKVSNKALPAPIEKTISKAGGLVQPGGSLRLSCAASGFTFNQVSLTCLVKGFYPSDIAVEWESNGQPENNYKTTPPVLDSDGSKTLYLQMNSLRAEDTAKHVFSCSVMHEALHNHYTQKSLSLSPGK
notes: also called Construct V20
B5: FcTregV1 (other)
chain: DKTHTCPPCPAPELLGGPSVFLFPPKPKDTLMISRTPEVTCVVVDVSHEDPEVKFNWYVDGVEVHNAKTKPREEQYQSTYRVVSVLTVLHQDWLNGKEYKCKVSNKALPAPIEKTISKAKGTDFTLTISSLQPEDDELTKNQVSLTCLVKGFYPSDIAVEWESNGQPENNYKTTPPVLDSDGSFFLYSKLTVDKSRWQQGNVFSCSVMHEALHNHYTQKSLSLSPGKLNNFYPREAKVQWKVDNALQSGNS
notes: Tregitope carrying polypeptide (TCP) built on the human IgG1 Fc-part: Treg289 in frame A, Treg084 in frame C, Treg134 C-terminal; also called Construct V1
B6: FcTregV14 (other)
chain: B5 chain with Q77N
notes: TCP on the human IgG1 Fc-part: Treg084 in frame C, Treg134 C-terminal; also called Construct V14
B7: FcTregV32 (other)
chain: DKTHTCPPCPAPELLGGPSVFLFPPKPKDTLMISRTPEVTCVVVDVSHEDPEVKFNWYVDGVEVHNAKTKPREEQYGGLVQPGGSLRLSCAASGFTFEYKCKVSNKALPAPIEKTISKAKGTDFTLTISSLQPEDRDELTKNQVSLTCLVKGFYPSDIAVEWESNGQPENNYKTTGGLVQPGGSLRLSCAASGFTFRWQQGNVFSCSVMHEALHNHYTQKSLSLSPGKKTLYLQMNSLRAEDTAKH
notes: TCP on the human IgG1 Fc-part: Treg009A in frame A, Treg084 in frame C, Treg009A in frame B, Treg088x C-terminal; also called Construct V32

Molecular target: the molecule itself
Test: dimer formation of the expressed construct (self-association), Western blot of transfected cells

Binding result, binds:
B1
B2
B3
B4
B5
B6
B7
